The values that follow come from article PMC3535375.

Test [1] has as its target recombinant soluble murine proADAM10 (truncated, lacking the signal peptide and the regions C-terminal of the protease domain) (murine). Briefly: SDS-PAGE with western blot + MALDI-TOF; purified recombinant proADAM10; anti-His-tag western blot and MALDI-TOF; a 100-kDa species called the proADAM10 dimer.
The target of another test is kallikrein 2 (KLK2) (UniProt P20151).
Chain of UniProt P20151 (P20151 19-261): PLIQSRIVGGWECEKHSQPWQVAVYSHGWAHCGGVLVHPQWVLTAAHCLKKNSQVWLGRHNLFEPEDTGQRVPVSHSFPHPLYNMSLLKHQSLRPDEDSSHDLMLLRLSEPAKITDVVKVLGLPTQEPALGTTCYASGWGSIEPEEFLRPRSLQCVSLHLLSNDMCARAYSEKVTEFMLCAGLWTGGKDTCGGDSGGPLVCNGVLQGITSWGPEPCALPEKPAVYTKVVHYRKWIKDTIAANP

Turning to “recombinant soluble murine proADAM10 (truncated, lacking the signal peptide and the regions C-terminal of the protease domain) (domain or fragment)”, the stoichiometry N in test [1] is 2.

In turn, “meprin β-cleaved LEKTI 9–14 (domain or fragment)” registered a KLK2 proteolytic activity (Z-Pyr-G-R-AMC) after incubation with meprin β-cleaved LEKTI 9–15, relative to uncleaved LEKTI 9–15 with kallikrein 2 (KLK2) of 20%.
